Source: the supplement of paper PMC7877785
± gives the uncertainty stated by the source.

Test: self-splicing fitness, log relative to wild type (ln ratio); higher = more splicing; Tetrahymena group I intron in knt gene, E. coli kanamycin selection, DiMSum; sequences stand for … in CUCUCU…GGAGGGAAAAGUUAUCAGGCAUGCACCUGGUAGCUAGUCUUUAAACCAAUAGAUUGCAUCGGUUUAAAAGGCAAGACCGUCAAAUUGCGGGAAAGGGGUCAACAGCCGUUCAGUACCAAGUCUCAGGGGAAACUUUGAGAUGGCCUUGCAAAGGGUAUGGUAAUAAGCUGACGGACAUGGUCCUAACCACGCAGCCAAGUCCUAAGUCAACAGAUCUUCUGUUGAUAUGGAUGCAGUUCACAGACUAAAUGUCGGUCGGGGAAGAUGUAUUCUUCUCAUAAGAUAUAGUCGGACCUCUCCUUAAUGGGAGCUAGCGGAUGAAGUGAUGCAACACUGGAGCCGCUGGGAACUAAUUUGUAUGCGAAAGUAUAUUGAUUAGUUUUGGAGUACUCGUGGUCG
Method in brief: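 Pooled colonies went to amplicon sequencing on an Illumina HiSeq 2500 after six replicate transformations. The plates were LB agar with 100 μg/mL carbenicillin, 50 μM IPTG and 0.2% rhamnose, with or without 25 μg/mL kanamycin, incubated overnight at 37°C or 30°C. The E. coli BL21(DE3) library had all eight P1ex-region intron nucleotides randomised, the intron placed in the knt kanamycin-resistance gene on pET-22b(+). DiMSum fitness is the error-weighted combination of replicate fold changes, kanamycin against none, normalised to wild type.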

ACUUAGCAAUAUUACGAGCG
self-splicing fitness (ln) (30 °C): -1.14 ± 0.096 | self-splicing fitness (ln) (37 °C): 0.122 ± 0.1

UGCUAGCAAUAUUACGAUUC
self-splicing fitness (ln) (37 °C): -2.33 ± 0.49

CCUGAGCAAUAUUACGUCUC
self-splicing fitness (ln) (37 °C): -3.42 ± 0.37

CCAUAGCAAUAUUACGGUAC
self-splicing fitness (ln) (30 °C): -3.2 ± 0.19 | self-splicing fitness (ln) (37 °C): -3.05 ± 0.27

ACUGAGCAAUAUUACGGCCC
self-splicing fitness (ln) (30 °C): -1.95 ± 0.3 | self-splicing fitness (ln) (37 °C): -0.993 ± 0.26

UGAGAGCAAUAUUACGCGAA
self-splicing fitness (ln) (30 °C): -4.25 ± 0.4 | self-splicing fitness (ln) (37 °C): -1.53 ± 0.28

CGCUAGCAAUAUUACGCUCA
self-splicing fitness (ln) (30 °C): -2.4 ± 0.18 | self-splicing fitness (ln) (37 °C): -0.522 ± 0.11

UCGAAGCAAUAUUACGAUUC
self-splicing fitness (ln) (30 °C): -4.04 ± 0.39 | self-splicing fitness (ln) (37 °C): -1.74 ± 0.26

GUAAAGCAAUAUUACGCGAC
self-splicing fitness (ln) (30 °C): -0.509 ± 0.26 | self-splicing fitness (ln) (37 °C): 1.71 ± 0.45

CUUCAGCAAUAUUACGUCCA
self-splicing fitness (ln) (30 °C): -2.19 ± 0.29 | self-splicing fitness (ln) (37 °C): -2.63 ± 0.36

GGUCAGCAAUAUUACGGAUG
self-splicing fitness (ln) (30 °C): -0.625 ± 0.095 | self-splicing fitness (ln) (37 °C): -0.309 ± 0.097

CAUCAGCAAUAUUACGAACC
self-splicing fitness (ln) (30 °C): -2.59 ± 0.24 | self-splicing fitness (ln) (37 °C): -0.525 ± 0.46

AUAUAGCAAUAUUACGAGUG
self-splicing fitness (ln) (30 °C): -2.78 ± 0.19 | self-splicing fitness (ln) (37 °C): -1.8 ± 0.2

GUAAAGCAAUAUUACGAGGG
self-splicing fitness (ln) (30 °C): -3.57 ± 0.24

ACCUAGCAAUAUUACGUACG
self-splicing fitness (ln) (30 °C): -2.46 ± 0.16 | self-splicing fitness (ln) (37 °C): -1.02 ± 0.14

CAUAAGCAAUAUUACGUGAG
self-splicing fitness (ln) (30 °C): -3.12 ± 0.13 | self-splicing fitness (ln) (37 °C): -0.711 ± 0.099

CUCCAGCAAUAUUACGCUUG
self-splicing fitness (ln) (30 °C): -3.52 ± 0.19 | self-splicing fitness (ln) (37 °C): -2.96 ± 0.21

AGGAAGCAAUAUUACGGCCU
self-splicing fitness (ln) (30 °C): -2.44 ± 0.37 | self-splicing fitness (ln) (37 °C): -1.5 ± 0.3

GGAAAGCAAUAUUACGUCUG
self-splicing fitness (ln) (30 °C): -0.579 ± 0.054 | self-splicing fitness (ln) (37 °C): 0.2 ± 0.07

ACAUAGCAAUAUUACGGUAU
self-splicing fitness (ln) (30 °C): -3.6 ± 0.11 | self-splicing fitness (ln) (37 °C): -1.77 ± 0.11

GGUAAGCAAUAUUACGGCCU
self-splicing fitness (ln) (30 °C): -2.34 ± 0.33

AAUUAGCAAUAUUACGCUUU
self-splicing fitness (ln) (30 °C): -3.27 ± 0.23 | self-splicing fitness (ln) (37 °C): -1.01 ± 0.14

UGGAAGCAAUAUUACGCCAC
self-splicing fitness (ln) (30 °C): -2.25 ± 0.42

UGCCAGCAAUAUUACGGGUC
self-splicing fitness (ln) (30 °C): -3.53 ± 0.23 | self-splicing fitness (ln) (37 °C): -2.34 ± 0.18

AUGAAGCAAUAUUACGUCUC
self-splicing fitness (ln) (30 °C): -1.1 ± 0.14 | self-splicing fitness (ln) (37 °C): -1.22 ± 0.14

GCGUAGCAAUAUUACGUCUG
self-splicing fitness (ln) (30 °C): -3.48 ± 0.23 | self-splicing fitness (ln) (37 °C): -3.38 ± 0.24

ACGUAGCAAUAUUACGCCCU
self-splicing fitness (ln) (30 °C): -0.282 ± 0.11 | self-splicing fitness (ln) (37 °C): -0.245 ± 0.095

AACCAGCAAUAUUACGAUAC
self-splicing fitness (ln) (30 °C): -2.38 ± 0.084 | self-splicing fitness (ln) (37 °C): -1.39 ± 0.11

GACCAGCAAUAUUACGAUCU
self-splicing fitness (ln) (30 °C): -0.841 ± 0.091 | self-splicing fitness (ln) (37 °C): -0.153 ± 0.1

AACGAGCAAUAUUACGGGUA
self-splicing fitness (ln) (30 °C): -2.96 ± 0.17 | self-splicing fitness (ln) (37 °C): -0.912 ± 0.11

GAAGAGCAAUAUUACGAUGA
self-splicing fitness (ln) (30 °C): -3.03 ± 0.31 | self-splicing fitness (ln) (37 °C): -1.57 ± 0.17

GUGAAGCAAUAUUACGGACU
self-splicing fitness (ln) (30 °C): -0.0214 ± 0.15 | self-splicing fitness (ln) (37 °C): -0.194 ± 0.19

GUGCAGCAAUAUUACGGAGC
self-splicing fitness (ln) (30 °C): -1.85 ± 0.2 | self-splicing fitness (ln) (37 °C): -1.97 ± 0.19

UUCUAGCAAUAUUACGUUAC
self-splicing fitness (ln) (30 °C): -2.41 ± 0.23 | self-splicing fitness (ln) (37 °C): -2.42 ± 0.29

UACCAGCAAUAUUACGACAU
self-splicing fitness (ln) (30 °C): -1.381 ± 0.012 | self-splicing fitness (ln) (37 °C): -0.566 ± 0.032

GCUCAGCAAUAUUACGCUGG
self-splicing fitness (ln) (30 °C): -2.98 ± 0.16 | self-splicing fitness (ln) (37 °C): -2.27 ± 0.22

UACAAGCAAUAUUACGAUAG
self-splicing fitness (ln) (30 °C): -2.16 ± 0.093 | self-splicing fitness (ln) (37 °C): -0.848 ± 0.089

UCACAGCAAUAUUACGCCUG
self-splicing fitness (ln) (30 °C): -1.21 ± 0.11 | self-splicing fitness (ln) (37 °C): -0.438 ± 0.12

GUAUAGCAAUAUUACGAGUG
self-splicing fitness (ln) (30 °C): -2.23 ± 0.15 | self-splicing fitness (ln) (37 °C): -2.47 ± 0.22
